Source: publication PMC10397247

T1: O3
T1 chain: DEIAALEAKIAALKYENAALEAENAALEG

T2: O9
T2 chain: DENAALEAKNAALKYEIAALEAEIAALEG

T3: O2
T3 chain: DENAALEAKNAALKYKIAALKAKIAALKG

T4: O7
T4 chain: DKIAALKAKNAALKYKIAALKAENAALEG

T5: O6
T5 chain: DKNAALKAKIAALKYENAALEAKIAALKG

T6: O5
T6 chain: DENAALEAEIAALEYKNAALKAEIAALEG

T7: O14
T7 chain: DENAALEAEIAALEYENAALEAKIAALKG

T8: O4
T8 chain: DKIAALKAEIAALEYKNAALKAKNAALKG

T9: O8
T9 chain: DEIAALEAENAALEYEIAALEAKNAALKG

T10: O16
T10 chain: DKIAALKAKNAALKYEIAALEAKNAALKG

T11: O15
T11 chain: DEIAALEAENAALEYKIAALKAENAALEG

T12: 4H883-bA
T12 chain: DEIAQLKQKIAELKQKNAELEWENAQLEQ

T13: 4H3632-bA
T13 chain: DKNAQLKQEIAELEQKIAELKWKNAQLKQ

T14: 4H496-bA
T14 chain: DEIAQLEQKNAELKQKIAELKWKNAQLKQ

T15: 4H3070-bA
T15 chain: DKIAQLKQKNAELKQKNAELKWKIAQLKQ

T16: 4H342-bA
T16 chain: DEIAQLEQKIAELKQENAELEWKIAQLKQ

T17: O13
T17 chain: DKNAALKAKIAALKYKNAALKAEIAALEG


Assays:
Test in all cases: two-hybrid library CCNG1;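 also: natural log of median RNA to DNA barcode read ratio; higher means stronger binding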
O3 = molecular target: T1, O3
O9 = molecular target: T2, O9
O2 = molecular target: T3, O2
O7 = molecular target: T4, O7
O6 = molecular target: T5, O6
O5 = molecular target: T6, O5
O14 = molecular target: T7, O14
O4 = molecular target: T8, O4
O8 = molecular target: T9, O8
O16 = molecular target: T10, O16
O15 = molecular target: T11, O15
4H883-bA = molecular target: T12, 4H883-bA
4H3632-bA = molecular target: T13, 4H3632-bA
4H496-bA = molecular target: T14, 4H496-bA
4H3070-bA = molecular target: T15, 4H3070-bA; settings: mean of both orientations
4H342-bA = molecular target: T16, 4H342-bA
O13 = molecular target: T17, O13

interaction score (O3)	interaction score (O9)	interaction score (O2)	interaction score (O7)	interaction score (O6)	interaction score (O5)	interaction score (O14)	interaction score (O4)	interaction score (O8)	interaction score (O16)	interaction score (O15)	interaction score (4H883-bA)	interaction score (4H3632-bA)	interaction score (4H496-bA)	interaction score (4H3070-bA)	interaction score (4H342-bA)	interaction score (O13)	Binder
-1.94	-2.25	-1.4	0.14	0.213	0.398	-2.21	-1.11	-2.34	0.545	-1.64	–	–	–	–	–	–	DENAALEAEIAALEYENAALEAKIAALKG [O14]
–	–	–	–	–	–	–	–	–	–	–	0.052	-1.37	-1.47	-0.355	1.46	–	DKIAQLKQKNAELKQKNAELKWKIAQLKQ [4H3070-bA]
-2.26	-2.39	-2.42	-2.53	-1.32	-1.38	1.68	-2.24	-1.26	-2.61	1.46	–	–	–	–	–	-2.48	DKNAALKAKIAALKYKNAALKAEIAALEG [O13]
